Patent US8278415B2
Positions of bridges follow the written chain, without caps; N, C: chain ends. No end group written: not given here. PEG = not defined here

B1: P190-DOXIL (peptide)
peptide: DPCTWEVWGRECLQ
modifications: disulfide 3-12 (inferred); not fully specified (N-terminus); also: inserted into DOXIL liposomes (doxorubicin)

Tests used:
[1] = target: EGFR on the surface of tumor cells (human) (UniProt P00533)
[2] = target: EGFR on the surface of tumor cells (human) (UniProt P00533); experiment: flow cytometry on A431 cells preincubated with 2 ug EGF, 2 uM bio-P190: avidin complex, 4° C.

Row | Binder | IC50 D4 [1] [µg/mL] | IC50 D6 [1] [µg/mL] | staining over background [2] [fold]
1 | B1 | 120 | 35 | 
2 | DPCTWEVWGRECLQ-{PEG-biotin} (disulfide 3-12 (inferred); reading uncertain) [Biotinylated-PEGylated P190] |  |  | 20
